As a reminder, the Kd is the equilibrium constant for the complex coming apart.

Several values for one entry are separate records, joined by “and”; a condition that tells them apart may be missing. Equal values may be shown once.

Assay [1] addresses H3K9me3 peptide, FITC-labeled. The assay is described as follows: fluorescence polarisation; 0.5 nM FITC-labeled peptide, chromodomain serially diluted (wild types 200-0.2 µM; Cbx7.V1 and Cbx.VDs 50 µM-50 nM); 25 °C, 30 min; 25 mM HEPES pH 7.5, 150 mM NaCl, 1 mM DTT, 0.01% TritonX-100; one-site total binding model; values of single replicates. Background: Fluorescence polarisation rises when a labelled molecule tumbles more slowly, as on binding a larger partner.

Assay [2] addresses H3K9me3 peptide, N-terminal FITC. Briefly: fluorescence polarisation; 0.5 nM FITC-labelled peptide; chromodomains 200-0.2 µM (wild type) or 50 µM-50 nM (Cbx7.V1 and all Cbx.VDs); 30 min at 25 °C; 25 mM HEPES pH 7.5, 150 mM NaCl, 1 mM DTT, 0.01% TritonX-100; one-site total binding model.
Assay [3] concerns the target H3K27me3 peptide, FITC-labeled. The assay is described as follows: fluorescence polarisation; 0.5 nM FITC-labeled peptide, chromodomain serially diluted (wild types 200-0.2 µM; Cbx7.V1 and Cbx.VDs 50 µM-50 nM); 25 °C, 30 min; 25 mM HEPES pH 7.5, 150 mM NaCl, 1 mM DTT, 0.01% TritonX-100; one-site total binding model; values of single replicates.
Assay [4] deals with H3K27me3 peptide, N-terminal FITC. Briefly: fluorescence polarisation; 0.5 nM FITC-labelled peptide; chromodomains 200-0.2 µM (wild type) or 50 µM-50 nM (Cbx7.V1 and all Cbx.VDs); 30 min at 25 °C; 25 mM HEPES pH 7.5, 150 mM NaCl, 1 mM DTT, 0.01% TritonX-100; one-site total binding model.
Assay [5] deals with Histone H3 H3K9me3 peptide (Homo sapiens) (UniProt P68431). The following applies: cited from earlier work.
Assay [6] concerns the target FITC-labeled H3K9me3 peptide. The assay is described as follows: fluorescence polarisation; 0.5 nM FITC-labeled peptide, chromodomain serially diluted (wild type 200-0.2 µM; Cbx7.V1 50 µM-50 nM); 25 mM HEPES pH 7.5, 150 mM NaCl, 1 mM DTT, 0.01% TritonX-100; 30 min at 25 °C; one-site total binding model.
Assay [7] concerns the target H3K27 peptide (non-methylated), N-terminal biotin. Briefly: phage ELISA. The following applies: read off a plot. (In general: An ELISA detects its analyte on a solid surface through an enzyme-linked reagent.)
Assay [8] addresses H3K27me3 peptide, N-terminal biotin. Briefly: phage ELISA. The following applies: read off a plot.

On to “Cbx1 chromodomain with the Asp9/Glu33 double substitution (from UniProt P83916 20-73) (domain or fragment)”, for which the Kd in assay [1] is 582 nM and 632 nM and 600 nM.

Take “Cbx1.VD chromodomain, Asp9/Glu33 (tags removed) (from UniProt P83916 20-73) (domain or fragment)”: the equilibrium dissociation constant (Kd) in assay [2] worked out at 600 nM. Take “Cbx2 chromodomain with the Asp9/Glu33 double substitution (from UniProt Q14781 9-62) (domain or fragment)”: the Kd in assay [1] was 4000 nM and 6000 nM and 5000 nM; in assay [3], 2400 nM and 2100 nM and 4300 nM. “Cbx2.VD chromodomain, Asp9/Glu33 (tags removed) (from UniProt Q14781 9-62) (domain or fragment)”: the Kd in assay [2] was found to be 5000 nM; in assay [4] it was 3000 nM. For “Cbx3 chromodomain with the Asp9/Glu33 double substitution (from UniProt Q13185 29-86) (domain or fragment)”, the Kd in assay [1] was 390 nM and 290 nM and 370 nM. “Cbx3.VD chromodomain, Asp9/Glu33 (tags removed) (from UniProt Q13185 29-86) (domain or fragment)” returned a Kd in assay [2] of 350 nM. As for “Cbx5 chromodomain with the Asp9/Glu33 double substitution (from UniProt P45973 18-75) (domain or fragment)”, the Kd in assay [1] was 560 nM and 440 nM and 510 nM. Regarding “Cbx5.VD chromodomain, Asp9/Glu33 (tags removed) (from UniProt P45973 18-75) (domain or fragment)”, in assay [2], the Kd stood at 500 nM.

As for Cbx7 chromodomain (from UniProt O95931), the Kd in assay [5] is 55000 nM. Regarding Cbx7.wt (domain or fragment), the Kd in assay [6] amounted to 27000 nM. “Cbx7.wt E8D; Q9D; V10I; K33E; P37L; K38E” yielded a response (Absorbance at 450 nm) in assay [7] of 0.12. Take “Cbx7.wt E8H; Q9D; A12P; K33R; G34D; P37E; K38Q”: the response (Absorbance at 450 nm) was found to be 0.55 in assay [8] and 0.08 in assay [7]. “Cbx7.wt G7C; E8D; Q9N; F11Y; A12P; P37L; K38E”: the response (Absorbance at 450 nm) in assay [8] is 1.9; in assay [7], 0.11. Regarding Cbx7.wt G7C; E8D; Q9N; K33E; P37Q; K38E, the response (Absorbance at 450 nm) was found to be 0.52 in assay [8] and 0.09 in assay [7]. In the case of “Cbx7.wt G7C; Q9Y; V10I; A12S; K33E; K38E; S40M”, the response (Absorbance at 450 nm) in assay [8] is 0.5; in assay [7] it was 0.12. For the substance Cbx7.wt G7F; Q9D; A12P; P37S; K38E, the response (Absorbance at 450 nm) was determined as 0.73 in assay [8] and 0.13 in assay [7]. With “Cbx8 chromodomain with the Asp9/Glu33 double substitution (from UniProt Q9HC52 8-61) (domain or fragment)”, the Kd in assay [1] is 21000 nM and 26000 nM and 16000 nM. Regarding “Cbx8.VD chromodomain, Asp9/Glu33 (tags removed) (from UniProt Q9HC52 8-61) (domain or fragment)”, the Kd in assay [2] was 20000 nM; in assay [4], above 50000 nM.

These data come from paper PMC9666628.
